Data on two molecules can be found in patent publication US10947523B2, “Biotechnological production of L-tryptophan” (Technische Universitaet Hamburg, priority 2017, dated 2021).

Series [1] is described as follows: Enzyme assay of wild-type and mutant eIGPs (specific activity). The class given is biochemical, Escherichia coli. The settings on record: for anthranilate resistance / sensitivity compared with wild-type eIGPs (in words): FIG. 3. The method, then:
The activity of IGPs from E. coli was measured by monitoring the formation of IGP via absorbance at 278 nm with a molar extinction coefficient value of 5500 M^−1 cm^−1 [24]. Assays were performed in 50 mM HEPPS pH 7.5, 4 mM EDTA at 30° C. with 20-25 μg/mL of purified enzymes in cuvettes. To investigate the effect of anthranilate on the activity of IGPs, the activities were measured in the presence of different concentrations of anthranilate. Unless stated otherwise, the reactions were started by adding 180 μM of the substrate CdRP. The synthesis of CdRP was performed by following the improved method reported by Kirschner et al.. The concentration of the synthesized CdRP in the stock solution was determined by measuring the concentrations of the product IGP with completely converted reactions.
[…]. Therefore, the effect of anthranilate on the activity of this mutants was not investigated. […] […].

For series [2] the following is noted: SDS-PAGE analysis, data not shown.
The conditions of series [3]: two-domain form, reference [31]; cited from earlier work.

Where a chain is given by its changes, count along the chain named. Names may count otherwise.

B1: I8V (protein)
chain: MQTVLAKVVADKAIWVEARKQQQPLASFQNEVQPSTRHFYDALQGARTAFILECKKASPSKGVIRDDFDPARIAAIYKHYASAISVLTDEKYFQGSFNFLPIVSQIAPQPILCKDFIIDPYQIYLARYYQADACLLMLSVLDDDQYRQLAAVAHSLEMGVLTEVSNEEEQERAIALGAKVVGINNRDLRDLSIDLNRTRELAPKLGHNVTVISESGINTYAQVRELSHFANGFLIGSALMAHDDLHAAVRRVLLGENKVCGLTRGQDAKAAYDAGAIYGGLIFVATSPRCVNVEQAQEVMAAAPLQYVGVFRNHDIADVVDKAKVLSLAAVQLHGNEEQLYIDTLREALPAHVAIWKALSVGETLPAREFQHVDKYVLDNGQGGSGQRFDWSLLNGQSLGNVLLAGGLGADNCVEAAQTGCAGLDFNSAVESQPGIKDARLLASVFQTLRAY
modifications: EcTrpC I8V
With B1, in series [1] (CdRP 180 μM), the “Specific activity in the absence of anthranilate” value was found to be 0.90 ± 0.03 µmol/min/mg. Besides, the “anthranilate resistance / sensitivity compared with wild-type eIGPs (in words)” value in series [1] is on record as “slightly increased”. The “solubility of the expressed protein (in words)” value in series [2] is “poorer solubility than the wild-type eIGPs”.

B2: S60A: E. coli IGPs mutant S60A, SEQ ID NO: 3 (protein)
chain: B1 chain with V8I, S60A
modifications: EcTrpC S60A
With B2, in series [3], the “efficiency (Kcat/Km) relative to the wild-type enzyme” value is “about 30%”. The “activity relative to the wild-type enzyme” value in series [1] (18 μM CdRP, absence of anthranilate) came out at 74%. The results for the “Specific activity in the absence of anthranilate” value in series [1] (CdRP 18 μM), in series [1] (CdRP 60 μM) and in series [1] (CdRP 180 μM) were 1.60 ± 0.03 µmol/min/mg, 2.05 ± 0.06 µmol/min/mg and 2.13 ± 0.01 µmol/min/mg, respectively. For the same molecule, the “anthranilate resistance / sensitivity compared with wild-type eIGPs (in words)” value in series [1] is on record as “significantly improved”. Moreover, in series [1] (more than 0.1 mM anthranilate, 180 μM CdRP), the “specific activity compared with wild type in the presence of anthranilate” value is “higher than that of the wild type”.
